Data: PMC3989047, “Purification and characterization of tyrosinase from walnut leaves (Juglans regia)” (Phytochemistry, 2014)

Experiments:
purified protein [1] = substrate: N[C@@H](Cc1ccc(O)c(O)c1)C(=O)O; test: purified protein; format: biochemical, Juglans regia; conditions: 50 mM sodium phosphate pH 6.5, five substrate concentrations 0.29-1.96 mM
purified protein [2] = substrate: N[C@@H](Cc1ccc(O)cc1)C(=O)O; test: purified protein; format: biochemical, Juglans regia; conditions: 50 mM sodium phosphate pH 6.5, five substrate concentrations 0.29-1.96 mM

B1: jrPPO1(Asp101 → Arg445), Juglans regia tyrosinase (form 2) (Juglans regia) (protein)
chain: DPVSAPELTLCSEADLPAGALPVNCCPPTSKKIKDFVLPSQNTPLRVRPAAHLVDNDYIAKYNKGIELMKSLPADDPRSFTQQANVHCAYCDGAYTQVGFPDLSLQVHECWLFFPFHRYYVYFFEKILGKLIGDPTFALPFWNWDSPPGMQLPSLYAVSNSAIYDPLRNANHQPPTIIDLDYGETSESTTTTDQVPSNLKIMYRQMVSGAKNPTLFFGSPYRAGDEPDPGAGTIESTPHNNIHLWTGDDTQPNIENMGNFYSAGRDPIFFAHHSNVDRMWTIWKTLGGKRKDITDPDWLNSSFFFYDENADPVRVKVKDCVDNTKLRYVYQDVEIPWLKTKPTPR
notes: native, purified from walnut leaves; 39,047 Da
Km (purified protein [1]): 8.8 mM | Vmax (purified protein [1]): 60 µM/min | Vmax/Km (purified protein [1]): 0.01 min⁻¹ | kcat (purified protein [1]): 199 s⁻¹ | kcat/Km (purified protein [1]): 22800 M⁻¹ s⁻¹ | Km (purified protein [2]): 1.9 mM | Vmax (purified protein [2]): 80 µM/min | Vmax/Km (purified protein [2]): 0.04 min⁻¹ | kcat (purified protein [2]): 20.8 s⁻¹ | kcat/Km (purified protein [2]): 10900 M⁻¹ s⁻¹
